US20110190477A1 (G2 INFLAMMATION, published 2011)

Legend:
[1] = molecular target: T1, chimeric receptor 6. HmHH (human; mouse, UniProt P30993 93-111); test: flow cytometry on transiently transfected L1.2 cells
T1 construct: range 93-111; Transiently expressed on mouse L1.2 cells
T1 sequence: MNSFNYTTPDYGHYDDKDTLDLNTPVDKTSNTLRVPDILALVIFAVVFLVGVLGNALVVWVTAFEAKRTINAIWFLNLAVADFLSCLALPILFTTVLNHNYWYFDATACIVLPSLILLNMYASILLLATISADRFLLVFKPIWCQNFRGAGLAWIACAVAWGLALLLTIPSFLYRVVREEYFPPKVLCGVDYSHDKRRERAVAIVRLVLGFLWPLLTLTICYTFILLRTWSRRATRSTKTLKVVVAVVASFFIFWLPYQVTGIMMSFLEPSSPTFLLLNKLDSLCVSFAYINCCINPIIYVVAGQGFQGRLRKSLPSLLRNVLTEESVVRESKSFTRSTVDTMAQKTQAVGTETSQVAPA
Protocol: (§1) A series of chimeric receptors comprising segments of mouse and human C5aR were constructed to identify the region of the C5a receptor that the antibodies bound. […] Each recombinant vector (5 μg diluted in DMEM) encoding a different chimeric receptor was transfected into 5×10⁵ mouse L1.2 cells using Lipofectamine 2000 (Invitrogen). Cells were grown in DMEM or RPMI (Invitrogen) plus 10% foetal bovine serum (Hyclone). After 24 hours or 48 hours, cells were harvested by centrifugation at 1,500 rpm for 5 min and resuspended in FACS buffer (phosphate buffered saline plus 2% bovine serum albumin). For staining with hAb-Q, 0.5×10⁵ transfected cells were incubated with 5 or 10 μg/ml antibody in a volume of 50 μl per well at 4° C. for 20 minutes. Cells were pelleted as above and rinsed 3 times with 150 μl FACS buffer before addition of 50 μl FITC-conjugated anti-human IgG diluted 1:200 or 1:300 (Sigma, F1641). This mix was incubated for 20 min at 4° C. before cells were pelleted, washed with FACS buffer 3 times and finally resuspended in 150-200 μl FACS buffer. Samples were analysed on a FACS Calibur (BD Biosciences).
(§2) To confirm that the humanised antibody hAb-Q, which was derived from mouse mAb 7F3 by CDR grafting, and therefore should contain the same antigen-binding site, had the same staining pattern as 7F3, transiently transfected cells expressing the different chimeric human/mouse C5aR were stained with hAb-Q and analysed by flow cytometry. The pattern of staining by hAb-Q was identical to that observed with 7F3. There was no staining by the secondary antibody (anti-hIgG-FITC) alone.

[2] = molecular target: T2, chimeric receptor 8. HHHm (human; mouse, UniProt P30993 264-283, limits assumed); test: as above
T2 construct: Transiently expressed on mouse L1.2 cells
T2 sequence: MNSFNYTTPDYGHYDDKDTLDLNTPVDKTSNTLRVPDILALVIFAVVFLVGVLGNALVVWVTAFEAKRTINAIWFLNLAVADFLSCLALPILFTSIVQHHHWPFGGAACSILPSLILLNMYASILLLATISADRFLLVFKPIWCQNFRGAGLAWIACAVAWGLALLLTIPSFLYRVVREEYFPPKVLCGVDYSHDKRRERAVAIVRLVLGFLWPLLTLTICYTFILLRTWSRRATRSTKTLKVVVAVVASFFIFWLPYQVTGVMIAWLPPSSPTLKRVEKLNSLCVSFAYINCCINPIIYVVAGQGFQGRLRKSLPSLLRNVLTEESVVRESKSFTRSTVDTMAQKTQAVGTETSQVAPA
Protocol: as §1, §2

[3] = molecular target: T3, chimeric receptor 11. mmHm (mouse; human, UniProt P30993 1-111; P30993 264-351, limits assumed); test: as above
T3 construct: Transiently expressed on mouse L1.2 cells
T3 sequence: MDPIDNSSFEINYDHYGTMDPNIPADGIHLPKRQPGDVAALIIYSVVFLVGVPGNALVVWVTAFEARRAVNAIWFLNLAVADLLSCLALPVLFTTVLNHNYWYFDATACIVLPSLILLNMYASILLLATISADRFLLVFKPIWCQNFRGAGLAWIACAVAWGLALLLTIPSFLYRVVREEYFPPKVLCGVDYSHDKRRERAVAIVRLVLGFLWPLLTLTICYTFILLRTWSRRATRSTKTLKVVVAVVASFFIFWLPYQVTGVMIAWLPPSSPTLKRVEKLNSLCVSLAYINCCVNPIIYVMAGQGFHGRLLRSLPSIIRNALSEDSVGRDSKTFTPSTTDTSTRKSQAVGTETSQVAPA
Protocol: as §1, §2

human C5a receptor = molecular target: T4, human C5a receptor (human, UniProt P21730 1-350); test: PK/PD model (NONMEM) fitted to serum concentration and receptor occupancy in hC5aR transgenic mice, toxicology study column
T4 construct: On human neutrophils, L1.2/hC5aR transfectants or neutrophils of hC5aR knock-in mice; also called hC5aR; C5aR1
T4 chain: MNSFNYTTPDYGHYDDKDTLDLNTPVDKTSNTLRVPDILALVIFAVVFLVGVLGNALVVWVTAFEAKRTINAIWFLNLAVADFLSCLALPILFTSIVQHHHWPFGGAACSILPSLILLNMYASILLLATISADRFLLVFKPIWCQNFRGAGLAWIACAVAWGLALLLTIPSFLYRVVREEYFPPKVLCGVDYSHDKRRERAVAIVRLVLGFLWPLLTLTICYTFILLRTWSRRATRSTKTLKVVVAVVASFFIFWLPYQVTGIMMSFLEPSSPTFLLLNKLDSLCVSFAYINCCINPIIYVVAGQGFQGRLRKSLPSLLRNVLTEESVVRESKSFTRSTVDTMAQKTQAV
Excerpt: NONMEM VI (non-linear mixed effects modelling software) with first order conditional estimation (FOCE) was used for modelling, and S-PLUS® 8.0 (Insigthful) was used for graphics and data handling. Evaluation of—and discrimination between—intermediate models was based on objective function values and standard graphical evaluation methods. In terms of objective function value, changes in this value were assumed to be chi-squared distributed (for nested models), and criteria for expanding the model were defined and used accordingly.
Toxicokinetics from the toxicology study in transgenic mice and PK/PD data from the pharmacology study was integrated to assess the relationship between pharmacokinetics and occupancy. […] This is consistent with other studies, observing higher clearance for high doses, due to saturation of the FcRN receptor (Hansen and Balthasar, 2002).

B1: humanized anti-C5aR antibody hAb-Q (antibody, human IgG4 S228P, kappa)
light: DVVMTQSPLSLPVTLGEPASISCRSSQSLVHSNGNTYLHWYLQKPGQSPQLLIYKVSNRFSGVPDRFSGSGSGTDFTLKISRVEAEDVGVYFCSQSTLVPLTFGQGTKLEIKRTVAAPSVFIFPPSDEQLKSGTASVVCLLNNFYPREAKVQWKVDNALQSGNSQESVTEQDSKDSTYSLSSTLTLSKADYEKHKVYACEVTHQGLSSPVTKSFNRGEC
heavy: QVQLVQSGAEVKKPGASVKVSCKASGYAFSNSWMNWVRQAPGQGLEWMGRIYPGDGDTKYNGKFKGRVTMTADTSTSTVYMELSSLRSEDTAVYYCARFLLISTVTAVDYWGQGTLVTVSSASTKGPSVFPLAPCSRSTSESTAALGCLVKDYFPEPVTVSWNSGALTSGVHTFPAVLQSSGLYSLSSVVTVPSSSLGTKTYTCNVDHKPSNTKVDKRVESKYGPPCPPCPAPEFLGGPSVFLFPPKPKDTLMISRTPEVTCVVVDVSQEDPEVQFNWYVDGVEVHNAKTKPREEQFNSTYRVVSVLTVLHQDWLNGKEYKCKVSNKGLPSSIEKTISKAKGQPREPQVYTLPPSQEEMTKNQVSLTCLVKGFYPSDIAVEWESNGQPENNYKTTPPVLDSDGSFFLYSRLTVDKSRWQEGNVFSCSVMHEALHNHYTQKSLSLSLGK
notes: IgG4 with the Ser228Pro mutation; also called antibody Q; anti-C5aR ab
[1]
  binding result: binds
[2]
  binding result: binds
[3]
  binding result: binds
Human C5a receptor
  Kd: 0.175 µg/mL
